Literature values, collected in publication PMC3985519.

Target: von Willebrand factor (Homo sapiens) (UniProt P04275)

## Factor VIII (from UniProt P00451)
  Kd: 0.5 nM
